Laboratory results: EP4703388A1 (Jiangsu Hengrui Pharmaceuticals Co., Ltd., dated 2024)
Where a chain is given by its changes, count along the chain named.

B1: hu310-10 (antibody, human IgG1, kappa, V domains shown)
VH: EVQLVQSGAEVKKPGASVKVSCKASGYSFTGYYMNWVRQAPGQGLEWMGEINPSTGGSTYNQKFKARVTLTVDQSTNTAYMELSSLRSEDTAVYYCARRELGGPFGYWGQGTTVTVSS
VL: SIVMTQSPDSLAVSLGERATINCKASQSVSNGIAWYQQKPGQSPKLLIYFASNRYTGVPDRFSGSGYGTDFTLTISSLQAEDVAVYYCQQDYSSPWTFGGGTKVEIKR
B2: hu310-5 (antibody, human IgG1, kappa, V domains shown)
VH: B1 VH with L70M, N77S, A79V
VL: SIQMTQSPSSLSASVGDRVTITCKASQSVSNGIAWYQQKPGKSPKLLIYFASNRYTGVPSRFSGSGYGTDFTFTISSLQPEDIATYYCQQDYSSPWTFGGGTKVEIKR
B3: hu310-8 (antibody, human IgG1, kappa, V domains shown)
VH: B1 VH with L70M, N77S, A79V
VL: B2 VL with N31T
B4: hu310-12 (antibody, human IgG1, kappa, V domains shown)
VH: B1 VH
VL: B2 VL with S1D, S43A, Y67S
B5: hu310-3 (antibody, human IgG1, kappa, V domains shown)
VH: B1 VH with L70M, N77S, A79V
VL: B1 VL with D9K, S10F, L73F
B6: hu310-15 (antibody, human IgG1, kappa, V domains shown)
VH: B1 VH
VL: B2 VL with N31S
B7: hu310-14 (antibody, human IgG1, kappa, V domains shown)
VH: B1 VH
VL: B2 VL with N31Q
B8: hu310-7 (antibody, human IgG1, kappa, V domains shown)
VH: B1 VH with L70M, N77S, A79V
VL: B2 VL with N31S
B9: hu310-11 (antibody, human IgG1, kappa, V domains shown)
VH: B1 VH
VL: B1 VL with D9K, S10F, L73F
B10: hu310-4 (antibody, human IgG1, kappa, V domains shown)
VH: B1 VH with L70M, N77S, A79V
VL: B2 VL with S1D, S43A, Y67S
B11: hu310-16 (antibody, human IgG1, kappa, V domains shown)
VH: B1 VH
VL: B2 VL with N31T
B12: hu310-13 (antibody, human IgG1, kappa, V domains shown)
VH: B1 VH
VL: B2 VL
B13: hu310-9 (antibody, human IgG1, kappa, V domains shown)
VH: B1 VH
VL: B1 VL with S1D, S43P, Y67S
B14: hu310-6 (antibody, human IgG1, kappa, V domains shown)
VH: B1 VH with L70M, N77S, A79V
VL: B2 VL with N31Q
B15: hu10H10-1 (antibody, V domains shown)
VH: EVQLVQSGAEVKKPGASVKVSCKASGYTFITYWIEWVRQRPGQGLEWMGDILPGSGSTNYNENFKGRVTFTADTSTSTVYMQLSSLRSEDTAVYYCARSGYYGNSGFAYWGQGTLVTVSS
VL: DIQMTQSPSSLSASVGDRVTITCKSSQSLLSSGNQKNYLTWYQQKPGKAPKLLIYWASTRESGVPSRFSGSGSGTDFTLTISSLQPEDFATYYCQNDYTYPLTFGQGTKLEIK
notes: H1+L1; Full-length IgG
B16: hu10H10-19 (antibody, V domains shown)
VH: B15 VH
VL: B15 VL with T103S
notes: H1+L4; Full-length IgG
B17: hu67-12 (antibody, human IgG1, kappa, V domains shown)
VH: EVQLQESGPGLVKPSQTLSLTCTVSGFSLTNYGVNWIRQPPRKGLEWIGVIWSRGNTDYNAAFISRVTISKDNSKSQVSLKLSSVTAADTAVYYCARKDAVVATDALDYWGQGTTVTVSS
VL: DIQMTQSPSSLSASVGDRVTITCKASQDVSTAVAWYQQKPGKAPKLLIYSTSYRYTGVPSRFSGSGSGTDFTFTISSLQPEDIATYYCQQHYSTPYTFGGGTKVEIKR
B18: hu67-3 (antibody, human IgG1, kappa, V domains shown)
VH: B17 VH with R42G, N73T, S76N
VL: DIVMTQSPKSLAVSLGERATINCKASQDVSTAVAWYQQKPGQPPKLLIYSTSYRYTGVPDRFSGSGSGTDFTLTISSLQAEDVAVYYCQQHYSTPYTFGGGTKVEIKR
B19: hu67-9 (antibody, human IgG1, kappa, V domains shown)
VH: EVTLKQSGPVLVKPTQTLTLTCTVSGFSLTNYGVNWIRQPPRKALEWLAVIWSRGNTDYNAAFISRLTISKDTSKSQVVLKMTNMDPVDTATYYCARKDAVVATDALDYWGQGTTVTVSS
VL: B17 VL
B20: hu67-13 (antibody, human IgG1, kappa, V domains shown)
VH: B19 VH
VL: B17 VL with P8H, S9K, S10F, A43S
B21: hu67-15 (antibody, human IgG1, kappa, V domains shown)
VH: B17 VH with R42G, N73T, S76N
VL: B17 VL with P8H, S9K, S10F, A43S
B22: hu67-10 (antibody, human IgG1, kappa, V domains shown)
VH: B19 VH with A44G, A49G, T73N
VL: B17 VL
B23: hu67-16 (antibody, human IgG1, kappa, V domains shown)
VH: B17 VH
VL: B17 VL with P8H, S9K, S10F, A43S
B24: hu67-8 (antibody, human IgG1, kappa, V domains shown)
VH: B17 VH
VL: B18 VL with P43S, L73F
B25: hu67-7 (antibody, human IgG1, kappa, V domains shown)
VH: B17 VH with R42G, N73T, S76N
VL: B18 VL with P43S, L73F
B26: hu67-1 (antibody, human IgG1, kappa, V domains shown)
VH: B19 VH
VL: B18 VL
B27: hu67-6 (antibody, human IgG1, kappa, V domains shown)
VH: B19 VH with A44G, A49G, T73N
VL: B18 VL with P43S, L73F
B28: hu67-2 (antibody, human IgG1, kappa, V domains shown)
VH: B19 VH with A44G, A49G, T73N
VL: B18 VL
B29: hu67-5 (antibody, human IgG1, kappa, V domains shown)
VH: B19 VH
VL: B18 VL with P43S, L73F

What follows are binders tested against T1, human tissue factor (TF) on MDA-MB-231, NCI-H358 and HCT116 cells (human, UniProt P13726 33-295) (assay: flow cytometry on MDA-MB-231 cells).
T1 construct: whole, on cells; also called TF antigen; CD142

B1 and B2 are within 1.5-fold of each other in EC50: 1.33 nM for the first, 1.55 nM for the second.

B3 and B4 are within 1.5-fold of each other in EC50: 1.73 nM for the first, 1.95 nM for the second.

B5 and B6 are within 1.5-fold of each other in EC50: 1.83 nM for the first, 1.98 nM for the second.

B7 and B8 are within 1.5-fold of each other in EC50: 1.76 nM for the first, 2.08 nM for the second.

B9 and B10 are within 1.5-fold of each other in EC50: 1.76 nM for the first, 2.11 nM for the second.

Compared with B11, B12 is 1.6-fold lower in EC50: 2.26 nM for the first, 1.39 nM for the second.

B13 and B14 are within 1.5-fold of each other in EC50: 1.97 nM for the first, 2.56 nM for the second.

B15 and B16 are within 1.5-fold of each other in EC50: 2.05 nM for the first, 2.35 nM for the second.

What follows are binders tested against T2, human TF ECD-His (hTF-his) (human, UniProt P13726 33-251) (assay: SPR Biacore T200, antibody on Protein A chip, TF-His as analyte, 1:1 model).
T2 construct: also called bio-hTF-his; human TF-His protein

B17 and B18 are within 1.5-fold of each other in Kd: 18.7 nM for the first, 14.2 nM for the second.

B19 and B20 are within 1.5-fold of each other in Kd: 16.4 nM for the first, 19 nM for the second.

B21 and B22 are within 1.5-fold of each other in Kd: 19.1 nM for the first, 15.2 nM for the second.

B23 and B24 are within 1.5-fold of each other in Kd: 19.2 nM for the first, 17.1 nM for the second.

B25 and B26 are within 1.5-fold of each other in Kd: 14.3 nM for the first, 13.6 nM for the second.

B27 and B28 are within 1.5-fold of each other in Kd: 21.7 nM for the first, 15.8 nM for the second.

Work on B29 yielded a Kd of 17.7 nM.

B17 and B18 are within 1.5-fold of each other in koff: 0.000731 s⁻¹ for the first, 0.000663 s⁻¹ for the second.

B19 and B20 are within 1.5-fold of each other in koff: 0.000564 s⁻¹ for the first, 0.000577 s⁻¹ for the second.

B21 and B22 are within 1.5-fold of each other in koff: 0.000638 s⁻¹ for the first, 0.000594 s⁻¹ for the second.

B23 and B24 are within 1.5-fold of each other in koff: 0.000702 s⁻¹ for the first, 0.000668 s⁻¹ for the second.

B25 and B26 are within 1.5-fold of each other in koff: 0.000584 s⁻¹ for the first, 0.000585 s⁻¹ for the second.

B27 and B28 are within 1.5-fold of each other in koff: 0.000652 s⁻¹ for the first, 0.000673 s⁻¹ for the second.

With B29 the koff was 0.000582 s⁻¹.

B17 and B18 are within 1.5-fold of each other in kon: 39200 M⁻¹ s⁻¹ for the first, 46600 M⁻¹ s⁻¹ for the second.

B19 and B20 are within 1.5-fold of each other in kon: 34500 M⁻¹ s⁻¹ for the first, 30400 M⁻¹ s⁻¹ for the second.

B21 and B22 are within 1.5-fold of each other in kon: 33400 M⁻¹ s⁻¹ for the first, 39200 M⁻¹ s⁻¹ for the second.

B23 and B24 are within 1.5-fold of each other in kon: 36500 M⁻¹ s⁻¹ for the first, 39000 M⁻¹ s⁻¹ for the second.

B25 and B26 are within 1.5-fold of each other in kon: 40800 M⁻¹ s⁻¹ for the first, 42900 M⁻¹ s⁻¹ for the second.

B27 and B28 are within 1.5-fold of each other in kon: 30000 M⁻¹ s⁻¹ for the first, 42600 M⁻¹ s⁻¹ for the second.

B29 was tested, and the kon was 32800 M⁻¹ s⁻¹.

Biological target: T3, cyno TF ECD-His (cTF-his) (monkey (cyno))
T3 construct: also called bio-cTF-his; monkey TF-His protein
T3 chain: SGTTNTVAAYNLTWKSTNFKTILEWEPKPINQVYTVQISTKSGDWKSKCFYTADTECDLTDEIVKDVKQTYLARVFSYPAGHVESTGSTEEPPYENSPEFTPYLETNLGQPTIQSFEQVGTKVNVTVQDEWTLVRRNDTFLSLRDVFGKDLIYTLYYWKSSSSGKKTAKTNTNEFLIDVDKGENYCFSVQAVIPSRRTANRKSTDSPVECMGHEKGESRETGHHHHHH
Test: as above

B17 and B18 are within 1.5-fold of each other in Kd: 14 nM for the first, 13.5 nM for the second.

B19 and B20 are within 1.5-fold of each other in Kd: 10.8 nM for the first, 10.9 nM for the second.

First: B21
Second: B22
The Kd of the first is 1.5-fold higher: 13.4 nM for the first, 8.9 nM for the second.

B23 and B24 are within 1.5-fold of each other in Kd: 14.8 nM for the first, 13.7 nM for the second.

B25 and B26 are within 1.5-fold of each other in Kd: 10.5 nM for the first, 14.8 nM for the second.

B27 and B28 are within 1.5-fold of each other in Kd: 14.3 nM for the first, 12.7 nM for the second.

B29 was tested, and the Kd was 15.1 nM.

B17 and B18 are within 1.5-fold of each other in koff: 0.000468 s⁻¹ for the first, 0.000431 s⁻¹ for the second.

B19 and B20 are within 1.5-fold of each other in koff: 0.000351 s⁻¹ for the first, 0.000344 s⁻¹ for the second.

B21 and B22 are within 1.5-fold of each other in koff: 0.000419 s⁻¹ for the first, 0.000356 s⁻¹ for the second.

B23 and B24 are within 1.5-fold of each other in koff: 0.000478 s⁻¹ for the first, 0.000446 s⁻¹ for the second.

B25 and B26 are within 1.5-fold of each other in koff: 0.00036 s⁻¹ for the first, 0.000358 s⁻¹ for the second.

B27 and B28 are within 1.5-fold of each other in koff: 0.000428 s⁻¹ for the first, 0.000429 s⁻¹ for the second.

Work on B29 yielded a koff of 0.00039 s⁻¹.

B17 and B18 are within 1.5-fold of each other in kon: 33400 M⁻¹ s⁻¹ for the first, 31900 M⁻¹ s⁻¹ for the second.

B19 and B20 are within 1.5-fold of each other in kon: 32400 M⁻¹ s⁻¹ for the first, 31500 M⁻¹ s⁻¹ for the second.

B21 and B22 are within 1.5-fold of each other in kon: 31200 M⁻¹ s⁻¹ for the first, 40000 M⁻¹ s⁻¹ for the second.

B23 and B24 are within 1.5-fold of each other in kon: 32200 M⁻¹ s⁻¹ for the first, 32500 M⁻¹ s⁻¹ for the second.

B25 and B26 are within 1.5-fold of each other in kon: 34200 M⁻¹ s⁻¹ for the first, 24100 M⁻¹ s⁻¹ for the second.

B27 and B28 are within 1.5-fold of each other in kon: 29900 M⁻¹ s⁻¹ for the first, 33700 M⁻¹ s⁻¹ for the second.

B29 was tested, and the kon was 25800 M⁻¹ s⁻¹.
